Experiments:
HIV = settings: greater activity; cited from earlier work
[1] = biological target: mouse B Lymphocyte Stimulator (Mus musculus, UniProt Q9WU72); experiment: Phage ELISA on immobilized mouse B Lymphocyte Stimulator; format: binding; settings: phage scFv; antigen coated at 1 μg/ml
Method: To determine the specificity of the 48 scFvs, a phage ELISA was performed against human and mouse B Lymphocyte Stimulator, and a panel of related and unrelated human antigens: Fas ligand, TRAIL, TNFα, TNFβ, and PBS, The: Fas ligand, TRAIL, TNFα, and TNFβ antigens were obtained from R&D Systems, Minneapolis, Minn., Individual E. coli colonies containing phagemid were inoculated into 5 ml 2YTAG and incubated at 37° C. for 4 hours, shaking. M13KO7 helper phage (Pharmacia) was added to each tube to a MOI of 10 and incubated […] 1 hour, the first 30 minutes static and the final 30 minutes with gentle shaking. Cells were pelleted by centrifugation at 3,500 rpm for 10 minutes and the supernatant discarded. Cell pellets were resuspended in 5 ml 2TYAK and incubated at 30° C. overnight with shaking. The next day, the cells were pelleted by centrifugation at 3,500 rpm for 10 minutes. The phage-containing supernatant (5 ml) was carefully transferred to a fresh tube, 1 ml of 6MPBS was added, and the tube was incubated at room temperature for 1 hour to pre-block the phage prior to ELISA.
All antigens were coated at 1 μg/ml. ELISAs were performed essentially as described in Example 2. The only exception to this being the detection of phage antibody binding to mouse B Lymphocyte Stimulator where the step involving incubation with the HRP-labelled anti-mouse polymer was omitted. Binding to mouse B Lymphocyte Stimulator was detected with TMB as in Example 2.
To determine the specificity of the 33 scFvs, a phage ELISA was performed as described in Example 4 against human and mouse B Lymphocyte Stimulator, and a panel of related human antigens: TRAIL, LIGHT, TNFα, TNFβ, and an uncoated well (PBS only).

[2] = biological target: T1, murine membrane-bound B Lymphocyte Stimulator on P388 plasma membranes (Mus musculus, UniProt Q9WU72); experiment: Competition ELISA on P388 plasma membranes; format: binding; settings: phage scFv; for competition of P388 plasma membrane binding by HIS-tagged B Lymphocyte Stimulator: human competitor; for recognition of P388 plasma membranes: membranes coated at 10 μg/ml
T1 construct: endogenous in cells; host or cells: P388.D1 cells, plasma membrane fraction coated on plates
T1 sequence (Q9WU72 whole entry): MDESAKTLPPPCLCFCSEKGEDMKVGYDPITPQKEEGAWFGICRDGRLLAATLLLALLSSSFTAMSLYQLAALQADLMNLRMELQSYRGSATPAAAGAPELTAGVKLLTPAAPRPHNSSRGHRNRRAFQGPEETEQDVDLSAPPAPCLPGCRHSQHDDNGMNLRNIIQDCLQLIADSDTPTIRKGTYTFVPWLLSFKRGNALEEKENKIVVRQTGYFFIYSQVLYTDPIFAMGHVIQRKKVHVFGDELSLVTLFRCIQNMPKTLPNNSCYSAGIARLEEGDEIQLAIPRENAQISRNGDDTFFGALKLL
Method: The ability of the 5 scFvs listed in Table 8 to also recognize murine membrane-bound B Lymphocyte Stimulator was determined using a competition ELISA. This assay assesses the ability of test phage scFvs to bind to the membrane-bound form of B Lymphocyte Stimulator on the murine cell line, P388, plasma membranes in the presence of different forms of competing human B Lymphocyte Stimulator. Competing B Lymphocyte Stimulator was either presented as the His-tagged form of B Lymphocyte Stimulator, or soluble B Lymphocyte Stimulator. ScFvs that recognize mouse membrane-bound B Lymphocyte Stimulator would give an ELISA signal on the P388 plasma membranes that is competed out by pre-incubation with HIS-tagged B Lymphocyte Stimulator but not by pre-incubation with soluble B Lymphocyte Stimulator.
P388.D1 cells are a mouse monocyte-macrophage like cell line. They were cultured in L15 medium supplemented with 2 mM L-glutamine, 10% CS, 10U penicillin, 100 µg/ml streptomycin (all reagents from Sigma). Cells were split 1:4 every 3-4 days to maintain a cell density of 2−8×10^5 per ml. A fresh aliquot of cells was thawed from liquid nitrogen every 6 weeks. Plasma membrane fractions were prepared as described in Example 2.
P388 plasma membranes ([…] per well) were coated at 10 μg/ml in PBS onto Falcon 96-well plates overnight at 4° C. The method is otherwise essentially as described Example 16.

Chain of mouse B Lymphocyte Stimulator (Q9WU72 127-309 limits assumed): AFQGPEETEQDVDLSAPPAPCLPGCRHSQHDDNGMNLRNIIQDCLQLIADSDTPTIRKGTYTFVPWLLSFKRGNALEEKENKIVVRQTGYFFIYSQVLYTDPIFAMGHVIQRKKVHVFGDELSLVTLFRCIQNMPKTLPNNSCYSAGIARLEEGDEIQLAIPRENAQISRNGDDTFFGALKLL

Row | Molecule | activity relative to HBY097 (HIV) | binding to immobilized mouse B Lymphocyte Stimulator [1] | competition of P388 plasma membrane binding by HIS-tagged B Lymphocyte Stimulator [2] | recognition of P388 plasma membranes [2]
1 | CC[C@H]1C(=O)Nc2ccc(F)cc2N1C(=O)OC(C)C [GW-420867X] | 25 fold |  |  | 
2 | I008C03: scFv, panel 1, binds soluble and membrane-bound B Lymphocyte Stimulator (protein, listed as Homo sapiens) scFv: QMQLVRSGGGVVQPGRSLRLSCAASGFTFSSYGMHWVRQAPGKGLEWVSVTYSGGNTNYADSVRGRFTISRDNSKNTLYLQMNSLRAEDTAVYYCAREGSYDILTGYYVGVGRMDVWGKGTLVTVSSGGGGSGGGGSGGGGSSELTQDPAVSVALGQTVRITCQGDSLRSYYTNWFQQKPGQAPLLVVYAKNKRPSGIPDRFSGSSSGNTASLTITGAQAEDEADYYCNSRDSSGNHVVFGGGTKLTVLG |  | did not bind |  | 
3 | I037E07: scFv, panel 1, binds soluble and membrane-bound B Lymphocyte Stimulator (protein, listed as Homo sapiens) scFv: QVQLVQSGAEVKKPGASVKVSCKASGYTFTNYGITWVRQAPGQGLEWMGWISAYNGNRNYAQKLQGRVTMTTDTSTSTAYMELRSLRSDDTAVYYCVRDGIDILLVPAALMDVWGRGTMVTVSSGGGGSGGGGSGGGGSQSVLTQPASVSGSPGQSITISCTGTSSDVGGYNYVSWYQQHPGKAPKLMIYEGSKRPSGVSNRFSGSKSGNTASLTISGLQAEDEADYYCSSYTTRSTRVFGGGTKLTVLG |  | did not bind |  | 
4 | I037E12: scFv, panel 1, binds soluble and membrane-bound B Lymphocyte Stimulator (protein, listed as Homo sapiens) scFv: EVQLVQSGAEVKKPGASVKVSCKASGYTFTNYGITWVRQAPGQGLEWMGWISAYNGNRNYAQKLQGRVTMTTDTSTSTAYMELRSLRSDDTAVYYCVRDGIDILLVPAALMDVWGKGTLVTVSSGGGGSGGGGSGGGGSQSVLTQPASVSGSPGQSITISCTGTSSDVGGYNYVSWYQQHPGKAPKLMIYEGNKRPSGVSNRFSGSKSGNTASLTISGLQAEDEADYYCSSYTTRSTRVFGGGTKLTVLG |  | did not bind |  | 
5 | I079E02: scFv, panel 3, binds membrane-bound B Lymphocyte Stimulator (protein, listed as Homo sapiens) scFv: QVQLVQSGAEVKKPGSSVKVSCKASGGTFSSYAISWVRQAPGQGLEWMGGIIPIFGTANYAQKFQGRVTITADKSTSTAYMELSSLRSDDTAVYYCARDSGSYYYDAFDIWGKGTMVTVSSGGGGSGGGGSGGGGSDIVMTQSPSTLSASVGDRVTITCRASQGISSWLAWYQQKPGKAPKLLIYAASSLQSGVPSRFSGSGSGTDFTLTISSLQPEDFATYYCQQANSFPLTFGGGTKVEIKR |  |  | competed out | recognize
6 | I082H08: scFv, panel 3, binds membrane-bound B Lymphocyte Stimulator (protein, listed as Homo sapiens) scFv: EVQLVESGGGLVQPGGSLRLSCAASGFTFSDYGMHWVRQRPGKGLEWIAFIGSDGSNKYYGDTVKGRFTISRDNAKNSLYLQMNSLRAEGTAVYYCARDWDMDVWGQGTMVTVSSGGGGSGGGGSGGGGSSHVILTQPRSVSGSPGQSVTISCTGTSSDVGGYHYVSWYQQHPGKAPRLMIYEVTKRPSGVSNRFSGSKSGNTASLTISGVQAEDEADYYCSSYTSASTVIFGGGTKLTVLG |  |  | competed out | recognize
7 | I099D03: scFv, panel 3, binds membrane-bound B Lymphocyte Stimulator (protein, listed as Homo sapiens) scFv: QVQLVQSGAEVKKPGASVRVSCKSSGYTFTNYGISWVRQAPGQGLEWMGWISNNNGKTYYAQKVQGRVTMTTDTSTSTDYMELRGLRSDDTAIYYCARDNGGGTIGFDYWGRGTLVTVSSGGGGSGGGGSGGGGSAQAVLTQPSSVSGAPGQRVTMSCTGSSSNIGAGYDVHWYQQLPGTAPKLLIYDNTNRPSGVPDRFSGSRSGTSASLAITGLQAEDEADYFCQSYDITLSAVFGTGTKVTVLG |  |  | competed out | recognize
